Results published in the nanobody polyreactivity screen of Harvey et al. (2022).

Assay: yeast display, Sf9 membrane polyspecificity reagent, FACS + sequencing; frameworks hold sequencing errors
How it was run: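 A nanobody's polyreactivity label depends on the gate it was sorted from. Yeast display cells were stained with 10% biotinylated, detergent-solubilized Sf9 membrane reagent for 1 hour at 4 °C, enriched on streptavidin microbeads and sorted by FACS. The low and high (top ~1%) gates were set on anti-HA fluorescence for expression and streptavidin fluorescence for reagent binding.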

## QVQLVESGGGLVQAGGSLRLSCAASGRTFWDYMGWYRQAPGKERELVATITSSGGSTYYADSVKGRFTISRDNAKNTVYLQMNSLKPEDTAVYYCNADWYLWSTFAQGYGYWGQGTQVTVSS
  polyreactivity (PSR sort gate): high polyreactivity

## QVQLVESGGGLVQAGGSLRLSCAASGSTVKTYAMGWYRQAPGKERELVAAISWSGGSTYYADSVKGRFTISRDNAKNTVYLQMNSLKPEDTAVYYCNAGWGYPSPWFIGEYWGQGTQVTVSS
  polyreactivity (PSR sort gate): low polyreactivity

## QVQLVESGGGLVQEGGSLRLSCAASGSIFQYYALGWYRPAPGKERELVAAISSGGRTNYADSVKGRFTISRDNAKNSVYLQMNSLKPEDTAVYYCAAARYYYQVYRWEYDYWGQGTQVTVSS
  polyreactivity (PSR sort gate): high polyreactivity

## QVQLVESGGGLVQAGGSLRLSCAASGLIFYLYAMGWYRQAPGKEREFVAAITTSGGSTHYADSVKGRFTISRDNAKNTVYLQMNSLKPEDTAVYYCAADDYFHGPGLEFDYWGQGTQVTVSS
  polyreactivity (PSR sort gate): low polyreactivity

## QVQLVESGGGLVQAGGSLRLICAASGRTFGIYAMGWYSPAPGKERELVATISWRGGSTYYADSVKGRFTISRDNAKNSVYLQMNSLKPEDTGVYYCAAGYYPYWGQGTQVTVSS
  polyreactivity (PSR sort gate): low polyreactivity

## QVQIVESGGGLVQAGGSLRLSCAASGITFRRNAMGWYRQAPGKERELVAVITSVGTTYYADSVKGRFTISRDNAKNTVYLQMNSLKPEDTAVYYCAARFYWGQGTQVTVSS
  polyreactivity (PSR sort gate): high polyreactivity

## QVQLVESGGGLVQAGGSLRLSCAASGSIFGPYAMGWYRQAPWKERELVATSTYYADSVKGRFTISRDNAKNTVYLQMNSLKPEDTAVYYCAKTPYYSGYGWGYDYWGQGTQVTVSS
  polyreactivity (PSR sort gate): low polyreactivity

## QVQLVESGGGIVQAGGSLRLSCAASGRTFYYNAMGWYRQAPGKERELVAAISSSGGSTYYADSVKGRFTISRDNAKNTVYLQMNSLKPEDTAGYYCAASSPGARGGGGYWGQGTQVTVSS
  polyreactivity (PSR sort gate): high polyreactivity

## QVQLLESGGGLVQAGGSLRLSCAASGRIFNYNAMGWYRQAPGKERELVAAISWDGGSTYYADSVKGRFTISRDNAKNTVYLQMNSLKPEDTAVYYCAARGGSRRFQSQAYSLPRYDYWGQGTQVTVSS
  polyreactivity (PSR sort gate): high polyreactivity

## QVQLVESGGGLVQAGGSLRLSCAASGITIYYYAMGWYRQAPGTERELVAAISTTVGSTYYADSVKGRFTISRDNAKNTVYLQMNSLKPEDTAVYYCNAYRVYAWIEYNYWGQGTQVTVSS
  polyreactivity (PSR sort gate): low polyreactivity

## QVQLEESGGSLVQAGGSLRLSCAASGRTFTVNDMGWYRQAPGKERELVADIRGSGVSTSYADSVKGRFTISRDNAKNTVYLQMNSLKPADTAVYYCATDPVKSGYQRYYYWGQGTHVTVSS
  polyreactivity (PSR sort gate): low polyreactivity

## QVQLVESGGGLVQAGGSLRLSCAASGIIFWDYAMGWSRQAPGKEREIVAAINTSGGTTTYADSVKGRFTISRDNAKNTVYLKMNSLKPEDTAVYYCAADTWGYYSYAYYYWGQGTQVTVSS
  polyreactivity (PSR sort gate): low polyreactivity

## QVQLVETGGGLVQAGGSLRLSCAASGRTFEGNAMGWYRQAPGKERELVAAISGSGGRTYYADSVKGRFTISRDNAKYTVYLQMNSLKPEDTAVYYETLYSVYNPRRFNYWGQGTQVTVSS
  polyreactivity (PSR sort gate): high polyreactivity

## QVHLVESGGCLVQAGGSLRLSCAASGRTFDFYAMGWYRQAPGKERELVATITSGTSTNYADSVKGRFTISRDNAKNTVYLQMYRLKPEDTAVYYCNAGGVYPRCTFLEQGYEMDYWGQGTQVTVSS
  polyreactivity (PSR sort gate): low polyreactivity

## QDQLVESGGGLVQAGGSLRLSCAASGSTFRRYTMGWYRQAPGKERELVAVITKSGGSTYYADSVKGRFTISRDNAKNTVYLQMNRLKPEDTAVYYCAAGVAWRFYSWLGHFNGFDYWGQGTQVTVSS
  polyreactivity (PSR sort gate): high polyreactivity

## QVQLVESGGGLVQAGGSLRLSCAASGLTFVFYAMGWYRQSPGNERELVAAISWSTGRTYYADSVKGRFTISRDNAKNTVYLQMNSLKPEDTAVFYCGASFLGRKYDYWGHGTQVTVSS
  polyreactivity (PSR sort gate): high polyreactivity

## QVQLVESGGGLVQAGGSLRLICASSGRIFSPYVMGWYRQAPGKERELVARISWTGSSTYYADSVKGRFTISRDNAKNTVYLQMNSLKPEDTAVYYCAKRLTRFYTRLEYWGLGTQVTVSS
  polyreactivity (PSR sort gate): low polyreactivity

## HVQLVESGGGLVQAGGSLRLSCAASGRILHLNAMGWYRQAPGKERELVAAITRSGSSTYYADSVKGRFTISRDNAKNTVYLQMNSLKAEDTAVYYCAADWYPHSSAYDYWGQGTQVTVSS
  polyreactivity (PSR sort gate): low polyreactivity

## QVQLVESGGGLVQAGGSLRLSCAASGSIFRLYAMGWYRQAPGKERELVAAISWTVGRTYYADSVKGRFTISRDNAKNTVYVQMNSLKPEDTAVYYCAAEKRILANWRRFDYWGQGTQVTVSS
  polyreactivity (PSR sort gate): low polyreactivity

## QVQLVESGGGLVQAGGSLRLSCAASGNIFANYAMGWYRQAPGKERELVAAIRWSASRTYYADSVKGRFTISRDNAKNTVYLQMNSLIPEDTAVYYCAATIYTFWDYYYDYWGQGTQVTVSS
  polyreactivity (PSR sort gate): high polyreactivity

## QVQLVESGGGLVQAGGSLRLSCAASGRIFRGYVMGWYRQAPGKERELVAITIGAGRTYYADSVKGRFTISRDNAKNTVYLQMISLKPEDTAVYYFAVRLYANSGRFDYWGQGTQVTVSS
  polyreactivity (PSR sort gate): low polyreactivity

## QVQLVESGGGLVQPGGSLRLSCAASGRNSTYTMGWYRQAPGKERELVATISTDASTNYADSVKGRFTISRDNAKNTVYLQMNSLKPEDTAVYYCAAVIVNQDYDYWGQGTQVTVSS
  polyreactivity (PSR sort gate): low polyreactivity

## QVQLVESGGGLVQSGGSLRLSCAASGIIFCRYAMGWYRQAPGKERELVATITWRGGSTYDADSVKGRFTISRDNAKNTVYLQMNSLKPEDTAVYYCAADNRQSRSFRARAYWGQGNQVTVSS
  polyreactivity (PSR sort gate): low polyreactivity

## QVQLVESGGGLVQAGGSLRLSCAASGFTFPDNAMGWYRQAPGKERELVAAITTSGGRTYYADSVKGRFTISRDNAKNTVYLQMNSLKPEDTAVYYCARPSRRTGREYGYWGQGTQVTVSS
  polyreactivity (PSR sort gate): high polyreactivity

## QVQLVESGGGLVQAGGSLRLSCAASGSIFLLYAMGWYRQAPGKERELVARISWSGDNTRYADSVKGRFTISPDNAKNTVYLQMNSLKPEDTAVYYCNAYFFYGQWKGYDYWGQGTQVTVSS
  polyreactivity (PSR sort gate): low polyreactivity

## QVQLVESGGGLGQAGGSLRLSCAASGFTFRTNAMGWYRQAPGKEREFVAAISWSGGRTYYADSVKGRFTISRDNAKNTVYLQMNSLKPEDTAVYYCNADPFHWYYTNMYYWGQGTQVTVSS
  polyreactivity (PSR sort gate): high polyreactivity

## QVQLVESGGGLVQAGGSLRLSCAASGSIFPFYAMGWYRQAPGKERELVATISWSGGRTYYADSVKGRFTISRDNAKYTVDLQMNTLKPEDTAVYYCAAGSYHYPNAYYYWGQGTQVTVSS
  polyreactivity (PSR sort gate): high polyreactivity

## QVQLVESGGGLVQAGGSLRLSSAASGRTISNYDMGWYRQAPGKERELVAAITYSGGSTYYADSVKGRFTISRDNAKNTVYLQMNSLKPEDTAVYYCAKISGTYYRYDYWGQGTQVTVSS
  polyreactivity (PSR sort gate): high polyreactivity

## QVQLVESGGGLVQAGGSLRLSCAASGRTFGGNTMGWYREAPGKERELVAAISRRGGSTYYADSVKGRFTISRDNAKNTVYLQMNSLKPEDTAVYYCNKDGPSYSSYDYWGQGTQVTVSS
  polyreactivity (PSR sort gate): low polyreactivity

## QVQLVESGGGLVQAGGSLRVSCAASGSTFVRNAMGGYRQAPGKETELVAFISTSGTRTHYADSVKGRFTISRDNAKNTVYFQMNSLKPEDTAVYYCNRRVYGIVTRDYWGQGTQVTVSS
  polyreactivity (PSR sort gate): high polyreactivity

## QVQLVESGGGLVQAGGSLGLSCAASGSTFAEYAMGWYRQAPGKERELVAVISFGDGNTYYADSVKGRVTISRDNAKNTVYLQMNSLKPEDTAVYYCNAADDSVDQSVRTLRQYEYWGQGTQVTVSS
  polyreactivity (PSR sort gate): low polyreactivity

## QVQLVESGGGIVQAGGSLSLSCAASGYNFTQNAMGGYRQAPGKERELVASITSGGSTDYADSVKGRFTISRDNAKNTVYLQMNSLKPEDTAVYYCAAEFHFWGYLYDYWGQGTQVTVSS
  polyreactivity (PSR sort gate): low polyreactivity

## QVQLVETGGGLVQAGGSLRLSCDASGRTFRIYGMGWYRQAPGKERELVAAISYSTGGTYYADSVKGRFTISRDNAKNTVYLQMTSLKPEDTAVYYCAAVVYAYLYADYDYWGQGTQVTVSS
  polyreactivity (PSR sort gate): low polyreactivity

## QVQLVESGGGLVQAGGSLRLSCAASGGTFAYYTMGWYRQAPGKERELVAAISSGGRTNYADSVKGRFTISRDNAKNTVYLQMNSLKPEDTAVYYCAAESPLVYYSYPAYYKYYEYEYWGQGTQVTVSS
  polyreactivity (PSR sort gate): low polyreactivity

## QVQLVESGGGLVQAGGSLRLSCAAYGRISYYYAMGWYRQAPGKERELVAAITYSTGSTYYADSVKGRFTISRDNAKNTVYLQMNSLKPEDSAVYYCAARYWRWLFPFDYWGQGTKVTVSS
  polyreactivity (PSR sort gate): high polyreactivity

## QVQLVESGGGLVQAGGSLRLSCAASGSMFANNAMGWYRQAPGKERELVAAITSGGNTDNADSVKGRFTISRDNAKYTVYLQMNSLKPEDTAVYYCAAERPPYGYLVVGYVSTQYYYWGQGTQVTVSS
  polyreactivity (PSR sort gate): low polyreactivity

## QVQLQESGGGLVQAGGDLRLSCAASGNIFRDYIMGWYRQAPGKEREFVAGIDRGANTNYADSVKGRFTISRDNAKNTVYLQMNSLKQEDTAVYYCAVHTAIVPDFIYWGQGTQVTVSS
  polyreactivity (PSR sort gate): low polyreactivity

## QVQLVESGGGLVQAGGSLRLSCAASGTMGWYRQAPGKERELVAAISSSDRTSYADSVKGRFTISRDNAKNTVYLQMNSLKPEDTAVYYCNASTVFAWRTTTLKLFYTAHDYWGQGTQVTVSS
  polyreactivity (PSR sort gate): low polyreactivity

## QVQLVESGVGLVQARGSLRLSCAASGVISSINAVGWNRLAAAKEWELVAGIRARGTSPYYADSVKGRFTISRDNAKNTVYLQMNCLKPEDTAVYDCAADVDAGRHYGYWGQGTQVTVSS
  polyreactivity (PSR sort gate): low polyreactivity

## QVQLVESGGGLVQAGGSLSLSSAASGSIFVGNAIAWYRQAPGKERELVATISWSCGSTYYADSVKGRFTISRDYAKNNVYLQMNSRKPEDTAVYYCAAEFGGYDPYDYWGQGTQVTVSS
  polyreactivity (PSR sort gate): low polyreactivity

## QVQLVESGGGLVQAGGSLRLSCAASGGIFQGYAMGWYRQAAGKERELVAAITRGGSTNYADSVKGRFTISRDNAKNTVYLQMNSLKPEDTAVYYFAARPRWFKGYDYWGQGTQVTVSS
  polyreactivity (PSR sort gate): high polyreactivity

## QVQLVESGGGLVQAGGSLRLSCASSGIIFAQYTMGWYRQEPGKERELVAAINRNGGSTYYADSVKGRCTISRDNAKHTVYLQMNSLKPEDTAVYYCTKDIERYVRIYDSWGQGTQVTVSS
  polyreactivity (PSR sort gate): low polyreactivity

## QVQLVESGGGLVQAGGSLRLSCAASGITFDEYAMGWYRQAPGKERELVAAISWRGAITYYADSVKGRFTISRDNAKNTVYLQMNSLKPEDTAGYYCNADRAYTYVRYYITQDFGYWGQGTQVTVSS
  polyreactivity (PSR sort gate): high polyreactivity
